Source: the supplement of paper PMC9170038

Test system: K4 kissing-loop RNA reporter
Assay: apparent KD of K4 kissing-loop reporter; higher = weaker reporter binding
Details: Eterna round: R107
Procedure: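 RNA-MaP round R107: designed RNA switches with theophylline, tryptophan, arginine or FMN aptamers are transcribed on-chip within common flanks. They are titrated with a labelled K4 kissing-loop RNA reporter in RNA-MaP buffer (100 mM Tris pH 7.5, 80 mM KCl, 4 mM MgCl2), without ligand or with the indicated ligand. Median apparent KD per design.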

[1] = input ligand: theophylline 20 uM
[2] = input ligand: tryptophan 2.4 mM
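Also: bound reporter read as fluorescence of individual clusters on recovered sequencing chips by microscopy, with normalized cluster intensities fitted with a binding model.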

| Sequence | apparent KD of K4 kissing-loop reporter (input ligand: FMN 200 uM) [µM] | apparent KD of K4 kissing-loop reporter (input ligand: arginine 13.2 mM) [µM] | apparent KD of K4 kissing-loop reporter (input ligand: none) [µM] | apparent KD of K4 kissing-loop reporter [1] [µM] | apparent KD of K4 kissing-loop reporter [2] [µM] |
| --- | --- | --- | --- | --- | --- |
| UGUACCGAGUCAGGAUAUGGCGUCGAAAGACGAAUCUUAGUGAUGUUAAGGAUCUGCGAAAGCAGUCCAGAAGGGACUUGGUACU [FmnBS 26 U37+A49] | 0.236 | 0.422 | 0.495 | 0.444 | 0.475 |
| GCAUCCUCUGCAGGAUAUCGCGGAGUGAUGUUCCGCGCAUGCCAUAGCGAAAGCUAUGGCAUGCGACGAGAAGGGCAGAGGAUGC | 0.165 | 0.124 | 0.147 | 0.157 | 0.138 |
| AUACGCGAUAGCGUAUAUAACAAAUCAGAAGGAGCGUGGAAGUACACAGGUAGGUCGCUGAAAAUAGGACUAGUGAUGUUAGUUA [JR_Nu_SSArginiA_Sub026] | 0.211 | 0.193 | 0.232 | 0.172 | 0.166 |
| GUAUCGCUAGGAGGAUAUUUCAAAUAACAAAUAAAUGGUUAUACGGAGUGAUGUUCCGAUUUACGGAAAGAAGGCCUAGUGAUAC [FMN B 4] | 0.112 | 0.203 | 0.21 | 0.218 | 0.203 |
| UGAUACCAGACGGCCGCCACUGGGACCGGGAGUGAUGUUCCGAAAAUUAAAUGCUCGGCCGCCACUAGGACCGGGUCUGGUAUCU [TrypBX 29 #DoubleAptamer #SwitchBubble] | 0.727 | 0.407 | 0.446 | 0.231 | 0.453 |
| CCAUCGCUAUUCGAUACCAGUCAGGAGGUCUAUGACCUCCUAAUGGAGUGAUGUUCCUUAGACCCUUGGCAGCGAAUAGUGAUGG [#01 K4 Theophylline B Same State] | 0.509 | 0.48 | 0.569 | 0.338 | 0.534 |
| GUAUGUGGAAACACGUACUUGUAUCCUAAGCAGGAUAUGCGGAAACGCAGAAGGGCUACCAACGAGUUUAUCCAGUGAUGUUGGA [Ex FMN A 13] | 0.507 | 0.298 | 0.332 | 0.393 | 0.455 |
| GGAUAGGAUAGAGGAUAUGGGCUAGGCAAGAAUAACUUGUCUAGUAAAUCCAUGAGGAGUGAUGUUCCAGAAGGCUGUCCUAUCG [MatMod 2 - Jieux - Exclusion - FMN B] | 0.286 | 0.166 | 0.324 | 0.182 | 0.247 |
| CGAGUGAUGUUCGUUCGUUUAUUUCGUUGACAGGAUAUGCGGAAACGCAGAAGGGUCACCUUUGAGUUAACGGAAUUAACGUUAU [Ex FMN A 28] | 0.561 | 0.452 | 0.544 | 0.49 | 0.456 |
| UGUGUUGUUUUGAUGUUUGGUGUUGCAUGGCAGGAUAUCGUAGAGGCGAGAAGGGCUUUUGUGCGGUAUGAGUGAUGUUUGUAGG [iihymullin] | 0.509 | 0.372 | 0.509 | 0.466 | 0.398 |
| GGCGCUGCCUGUGCCGCCCUCCUCGUCCCUCGAGGACCGGUACGGCCGCCACUCGAGUGAUGUUCGGGUAGCCCUCCCUGCCAGC [BDazzled - #23 Exc. Tryptophan A] | 0.585 | 0.407 | 0.567 | 0.511 | 0.34 |
| AUUAAUAACUGAGGAUAUCGAAAUUAUGUAGUGAUGUUACUGUAAAUUCAAAUUUUCAUUUCUUAACGAGAAGGCAGAAUAAUUA [JR_ExcFMNB_Sub012] | 0.173 | 0.185 | 0.115 | 0.2 | 0.0868 |
| UUAGAGAUCUCAGGAUAUCAGUGAUGUUGUGAUCCAGAUCUGAGAUAGAAUUCUAUCUCAGAUCAAUGAGAAGGGAGAUCUCAUU [AK4.3 Exc FMN B] | 0.721 | 1.2 | 1.49 | 0.878 | 1.09 |
| GUAUCGCUAGGAGGAUAUUCCAUUUUACAUAUAAAUGGAUAUGCGGAGUGAUGUUCCGAUUUACGGGAAGAAGGCCUAGUGAUAC [FMN B 20] | 0.138 | 0.22 | 0.219 | 0.256 | 0.208 |
| UAUAUAGUGACGGCCGCCACUAUUGUGAUGUUGUUGUUAGAGUGAUGUUUUGUUGUUUGAUUUUGUAGGACCGGGUUAUAUGUUA [ffdfzmullin] | 0.78 | 0.5 | 0.615 | 0.567 | 0.562 |
| AAAGUUGAAAGUGAUACCAGACGAGUGAAGGGAAGAAAUUAAUUUGGAGUGAUGUUCCGCGUCCCUUGGCAGCACUUUGUAAUUU [Exclusion Theophylline B GF 23] | 0.123 | 0.15 | 0.142 | 0.174 | 0.107 |
| GGUAGCAUGGCGGCCGCCACUUCAAGUGGAGUGAUGUUCCGCGGCAUCGCGAAAGCGAUGCCUGGAAGGACCGGGCCAUGCUACC | 1.09 | 0.858 | 0.924 | 0.797 | 0.305 |
| UGCAGUGAUGUUGCUAUUUGUCUUGAUUAACGAGGACCGGUACGGCCGCCACUCGAUUUCUCUCUAAUCGGGUAUGUUGUUUAGU [#20 K4 Tryptophan A Exclusion] | 0.154 | 0.2 | 0.17 | 0.187 | 0.119 |
| GGUGCGGGCUCGGCCGCCACUCCCGCGGGUCGUAAGGUCCGCUACUGAGUGAUGUUCGGUUGGAGGAGGACCGGGAGCCCGUGCC [#2 Exclusion - Tryptophan B Attempt #19 (HarryS)] | 0.115 | 0.113 | 0.106 | 0.0853 | 0.106 |
| UUAGGAGUGGAAGGAUAUCCUGGUGUGGGUGAUGUUAGUGAUGUUGAAGGUGCAGUGAUGUUGCGCGGAGAAGGUCCGGUGUUGA [BDazzled - #6 - Exc. FMN B] | 0.344 | 0.341 | 0.367 | 0.546 | 0.319 |
| UGAUACCAGACGGCCGCCACUUCCGUAAGUCAAAGACUUACCAAGAGAAUCGUCCAGUGAUGUUGGAGGACCGGGUCUGGUAUCU [FiskerMod 7 - Jieux - Exclusion - Tryptophan B] | 0.931 | 0.654 | 0.979 | 0.849 | 0.872 |
